In patent US20030118612A1 (MAXYGEN, published 2003):

T1: human G-CSF receptor (human, UniProt Q99062 25-836)
T1 sequence (looked up): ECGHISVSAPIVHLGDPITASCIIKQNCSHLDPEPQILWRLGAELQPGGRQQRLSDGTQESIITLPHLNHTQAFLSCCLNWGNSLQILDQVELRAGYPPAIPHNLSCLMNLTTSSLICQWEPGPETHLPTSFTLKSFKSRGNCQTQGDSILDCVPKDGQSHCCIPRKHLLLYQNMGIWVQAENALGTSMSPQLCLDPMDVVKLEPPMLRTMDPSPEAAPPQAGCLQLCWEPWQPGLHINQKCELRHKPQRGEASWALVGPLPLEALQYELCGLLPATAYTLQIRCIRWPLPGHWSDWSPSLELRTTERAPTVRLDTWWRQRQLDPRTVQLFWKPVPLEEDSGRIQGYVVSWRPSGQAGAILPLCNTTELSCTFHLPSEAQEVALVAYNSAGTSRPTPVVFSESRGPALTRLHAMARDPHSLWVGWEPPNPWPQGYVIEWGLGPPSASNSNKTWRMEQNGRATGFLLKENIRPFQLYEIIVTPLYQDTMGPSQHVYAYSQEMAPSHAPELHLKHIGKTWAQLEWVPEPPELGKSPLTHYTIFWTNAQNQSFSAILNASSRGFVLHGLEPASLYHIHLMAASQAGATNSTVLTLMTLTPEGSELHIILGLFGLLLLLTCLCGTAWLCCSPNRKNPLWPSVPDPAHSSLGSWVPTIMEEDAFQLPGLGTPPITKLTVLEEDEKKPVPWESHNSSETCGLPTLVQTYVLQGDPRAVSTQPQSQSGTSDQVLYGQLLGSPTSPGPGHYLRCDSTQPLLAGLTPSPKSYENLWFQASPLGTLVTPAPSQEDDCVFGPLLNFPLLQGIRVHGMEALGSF


Molecular target: T1, human G-CSF receptor
Experiment: cell-based or functional assay

Row | EC50 (% of hG-CSF) conjugated to SPA-PEG 5000 | EC50 (% of hG-CSF) non-conjugated | Binder
1 | 0.1 % of hG-CSF |  | G-CSF variant 23Q conjugated to SPA-PEG 5000 (ligand, SPA-PEG 5000 conjugated to the available PEGylation sites) TPLGPASSLPQSFLLKCLEQVRQIQGDGAALQEKLCATYKLCHPEELVLLGHSLGIPWAPLSSCPSQALQLAGCLSQLHSGLFLYQGLLQALEGISPELGPTLDTLQLDVADFATTIWQQMEELGMAPALQPTQGAMPAFASAFQRRAGGVLVASHLQSFLEVSYRVLRHLAQP
2 |  | 10 % of hG-CSF | G-CSF variant K16/34/40R Q70K T105K Q120K, non-conjugated (ligand) TPLGPASSLPQSFLLRCLEQVRKIQGDGAALQERLCATYRLCHPEELVLLGHSLGIPWAPLSSCPSQALKLAGCLSQLHSGLFLYQGLLQALEGISPELGPTLDKLQLDVADFATTIWQKMEELGMAPALQPTQGAMPAFASAFQRRAGGVLVASHLQSFLEVSYRVLRHLAQP
3 |  | 15 % of hG-CSF | G-CSF variant K16/34/40R Q70K Q120K T133K, non-conjugated (ligand) TPLGPASSLPQSFLLRCLEQVRKIQGDGAALQERLCATYRLCHPEELVLLGHSLGIPWAPLSSCPSQALKLAGCLSQLHSGLFLYQGLLQALEGISPELGPTLDTLQLDVADFATTIWQKMEELGMAPALQPKQGAMPAFASAFQRRAGGVLVASHLQSFLEVSYRVLRHLAQP
4 | 12 % of hG-CSF |  | G-CSF variant K16/34/40R Q70K Q90K Q120K conjugated to SPA-PEG 5000 (ligand, SPA-PEG 5000 conjugated to the available PEGylation sites) TPLGPASSLPQSFLLRCLEQVRKIQGDGAALQERLCATYRLCHPEELVLLGHSLGIPWAPLSSCPSQALKLAGCLSQLHSGLFLYQGLLKALEGISPELGPTLDTLQLDVADFATTIWQKMEELGMAPALQPTQGAMPAFASAFQRRAGGVLVASHLQSFLEVSYRVLRHLAQP
5 | 2 % of hG-CSF |  | G-CSF variant K16/34/40R Q70K Q120K T133K conjugated to SPA-PEG 5000 (ligand, SPA-PEG 5000 conjugated to the available PEGylation sites) TPLGPASSLPQSFLLRCLEQVRKIQGDGAALQERLCATYRLCHPEELVLLGHSLGIPWAPLSSCPSQALKLAGCLSQLHSGLFLYQGLLQALEGISPELGPTLDTLQLDVADFATTIWQKMEELGMAPALQPKQGAMPAFASAFQRRAGGVLVASHLQSFLEVSYRVLRHLAQP
6 | 1 % of hG-CSF |  | G-CSF variant K16/34/40R Q70K Q120K S142K conjugated to SPA-PEG 5000 (ligand, SPA-PEG 5000 conjugated to the available PEGylation sites) TPLGPASSLPQSFLLRCLEQVRKIQGDGAALQERLCATYRLCHPEELVLLGHSLGIPWAPLSSCPSQALKLAGCLSQLHSGLFLYQGLLQALEGISPELGPTLDTLQLDVADFATTIWQKMEELGMAPALQPTQGAMPAFAKAFQRRAGGVLVASHLQSFLEVSYRVLRHLAQP
7 |  | 15 % of hG-CSF | G-CSF variant K16/34/40R Q70K Q90K T133K, non-conjugated (ligand) TPLGPASSLPQSFLLRCLEQVRKIQGDGAALQERLCATYRLCHPEELVLLGHSLGIPWAPLSSCPSQALKLAGCLSQLHSGLFLYQGLLKALEGISPELGPTLDTLQLDVADFATTIWQQMEELGMAPALQPKQGAMPAFASAFQRRAGGVLVASHLQSFLEVSYRVLRHLAQP
8 | 2 % of hG-CSF |  | G-CSF variant K16/34/40R Q70K T105K Q120K conjugated to SPA-PEG 5000 (ligand, SPA-PEG 5000 conjugated to the available PEGylation sites) TPLGPASSLPQSFLLRCLEQVRKIQGDGAALQERLCATYRLCHPEELVLLGHSLGIPWAPLSSCPSQALKLAGCLSQLHSGLFLYQGLLQALEGISPELGPTLDKLQLDVADFATTIWQKMEELGMAPALQPTQGAMPAFASAFQRRAGGVLVASHLQSFLEVSYRVLRHLAQP
9 |  | 10 % of hG-CSF | G-CSF variant K16/34/40R Q70K Q120K S142K, non-conjugated (ligand) TPLGPASSLPQSFLLRCLEQVRKIQGDGAALQERLCATYRLCHPEELVLLGHSLGIPWAPLSSCPSQALKLAGCLSQLHSGLFLYQGLLQALEGISPELGPTLDTLQLDVADFATTIWQKMEELGMAPALQPTQGAMPAFAKAFQRRAGGVLVASHLQSFLEVSYRVLRHLAQP
10 | 5 % of hG-CSF |  | G-CSF variant K16/34/40R Q70K Q90K T133K conjugated to SPA-PEG 5000 (ligand, SPA-PEG 5000 conjugated to the available PEGylation sites) TPLGPASSLPQSFLLRCLEQVRKIQGDGAALQERLCATYRLCHPEELVLLGHSLGIPWAPLSSCPSQALKLAGCLSQLHSGLFLYQGLLKALEGISPELGPTLDTLQLDVADFATTIWQQMEELGMAPALQPKQGAMPAFASAFQRRAGGVLVASHLQSFLEVSYRVLRHLAQP
